In patent US20230414735A1, “NEOANTIGENS AND METHODS OF THEIR USE” (priority 2016, published 2023) one finds IC50 and Stability (T1/2 (h)) data, which are given here for seven molecules.

In experiment [1] the target is HLA-B08:01 (human). The experiment is described as follows: competition with 125I probe peptide for purified HLA class I. Conditions: remark: other sources report otherwise.
Experiment [2] has as its target HLA-B08:01 (human). The experiment is described as follows: pMHC-I dissociation, 125I-b2m. Conditions: remark: other sources report otherwise.
The target of experiment [3] is HLA-B08:01 (human). Nature of the experiment: competition with 125I probe peptide on purified HLA.

For the molecule NQRPILTII, the IC50 in the experiment with HLA-B08:01 (human) [1] turned out to be 0.02 µM.
With MALNSEALSV, the Stability (T1/2 (h)) with HLA-B08:01 (human) [2] is 0 h.
In the experiment with HLA-B08:01 (human) [3], SLRRKYLRV showed an IC50 of 0.0004 µM.
Consider MNWRPILTI, for which, in the experiment with HLA-B08:01 (human) [2], the Stability (T1/2 (h)) was found to be 0 h. This molecule showed an IC50 in the experiment with HLA-B08:01 (human) [1] of 0.001 µM.
For the molecule LPRKPTRAA, the Stability (T1/2 (h)) in the experiment with HLA-B08:01 (human) [2] was found to be 0 h.
In the experiment with HLA-B08:01 (human) [1], CMGSMNRRPI yielded a concentration for half-maximal inhibition (IC50) of 0.08 µM.
With GMNWRPILTI, the Stability (T1/2 (h)) with HLA-B08:01 (human) [2] worked out at 0 h.

Usually IC50 stands for the point on the concentration scale where inhibition reaches its midpoint.
